The assay addresses T1, human UHRF1 PHD finger, residues 299–366 (human, UniProt Q96T88 299-366).
T1 chain: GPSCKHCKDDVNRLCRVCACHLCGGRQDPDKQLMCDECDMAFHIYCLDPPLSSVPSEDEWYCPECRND
As to the kind of experiment: ITC. (In general: Isothermal titration calorimetry measures the heat released or taken up as one component is titrated into another.)

The term Kd denotes the free concentration of one partner at which half of the binding sites on the other are occupied at equilibrium, for simple one-to-one binding. A lower Kd goes with a tighter complex. Regarding SRRGVRTALSVQREKMARLRYMLLGGVRTHERRPTNKE (domain or fragment) [hDPPA3_(81-118) L88A], the Kd is 1280 nM.
The value for SRRGARTLLSVQREKMARLRYMLLGGVRTHERRPTNKE (domain or fragment) [hDPPA3_(81-118) V85A] was 1610 nM.

These data come from publication PMC11187062 (2024).
